Data as given in publication PMC12416549 (2024).
Changes are numbered by the printed parent chain. Numbers in names are those of the source.

B1: D65A (designed binder)
chain: MTLQELLREEALRRAEAEAFRYALELLAEKFPEQKEYLLDLAEEIESQIRSLSGVDVEDVRKFLAKEWAWVKELLAEHPAELAEVEAARAARLAELRAEVEAKVAA
B2: L39R (designed binder)
chain: B1 chain with L39R, A65D
B3: R61F (designed binder)
chain: B1 chain with R61F, A65D
B4: V57F (designed binder)
chain: B1 chain with V57F, A65D
B5: V60I (designed binder)
chain: B1 chain with V60I, A65D
B6: A69C (designed binder)
chain: B1 chain with A65D, A69C
B7: L96A (designed binder)
chain: B1 chain with A65D, L96A
B8: W68K (designed binder)
chain: B1 chain with A65D, W68K
B9: L24I (designed binder)
chain: B1 chain with L24I, A65D
B10: V57A (designed binder)
chain: B1 chain with V57A, A65D
B11: R97D (designed binder)
chain: B1 chain with A65D, R97D
B12: E29S (designed binder)
chain: B1 chain with E29S, A65D
B13: E10S (designed binder)
chain: B1 chain with E10S, A65D
B14: R14N (designed binder)
chain: B1 chain with R14N, A65D
B15: V60G (designed binder)
chain: B1 chain with V60G, A65D
B16: A23E (designed binder)
chain: B1 chain with A23E, A65D
B17: F31S (designed binder)
chain: B1 chain with F31S, A65D
B18: L75Q (designed binder)
chain: B1 chain with A65D, L75Q
B19: L27N (designed binder)
chain: B1 chain with L27N, A65D
B20: E99Q (designed binder)
chain: B1 chain with A65D, E99Q
B21: L75K (designed binder)
chain: B1 chain with A65D, L75K
B22: A42P (designed binder)
chain: B1 chain with A42P, A65D
B23: F63M (designed binder)
chain: B1 chain with F63M, A65D
B24: A23S (designed binder)
chain: B1 chain with A23S, A65D
B25: L27H (designed binder)
chain: B1 chain with L27H, A65D
B26: E67H (designed binder)
chain: B1 chain with A65D, E67H
B27: Y37D (designed binder)
chain: B1 chain with Y37D, A65D
B28: E25R (designed binder)
chain: B1 chain with E25R, A65D
B29: W70C (designed binder)
chain: B1 chain with A65D, W70C
B30: E101Y (designed binder)
chain: B1 chain with A65D, E101Y
B31: A80I (designed binder)
chain: B1 chain with A65D, A80I
B32: E10N (designed binder)
chain: B1 chain with E10N, A65D
B33: A106H (designed binder)
chain: B1 chain with A65D, A106H
B34: A105I (designed binder)
chain: B1 chain with A65D, A105I
B35: L74C (designed binder)
chain: B1 chain with A65D, L74C
B36: D59E (designed binder)
chain: B1 chain with D59E, A65D
B37: K103A (designed binder)
chain: B1 chain with A65D, K103A
B38: E99M (designed binder)
chain: B1 chain with A65D, E99M
B39: M1K (designed binder)
chain: B1 chain with M1K, A65D
B40: E16Y (designed binder)
chain: B1 chain with E16Y, A65D
B41: A88Q (designed binder)
chain: B1 chain with A65D, A88Q
B42: A28C (designed binder)
chain: B1 chain with A28C, A65D
B43: A87G (designed binder)
chain: B1 chain with A65D, A87G
B44: P32A (designed binder)
chain: B1 chain with P32A, A65D
B45: E44N (designed binder)
chain: B1 chain with E44N, A65D
B46: P79A (designed binder)
chain: B1 chain with A65D, P79A
B47: F63Y (designed binder)
chain: B1 chain with F63Y, A65D
B48: R89E (designed binder)
chain: B1 chain with A65D, R89E
B49: L74N (designed binder)
chain: B1 chain with A65D, L74N
B50: D59R (designed binder)
chain: B1 chain with D59R, A65D
B51: A28S (designed binder)
chain: B1 chain with A28S, A65D
B52: E5C (designed binder)
chain: B1 chain with E5C, A65D
B53: V85E (designed binder)
chain: B1 chain with A65D, V85E
B54: A69D (designed binder)
chain: B1 chain with A65D, A69D
B55: E67T (designed binder)
chain: B1 chain with A65D, E67T

Target: T1, TNFR1 (Homo sapiens, UniProt P19438)
T1 chain: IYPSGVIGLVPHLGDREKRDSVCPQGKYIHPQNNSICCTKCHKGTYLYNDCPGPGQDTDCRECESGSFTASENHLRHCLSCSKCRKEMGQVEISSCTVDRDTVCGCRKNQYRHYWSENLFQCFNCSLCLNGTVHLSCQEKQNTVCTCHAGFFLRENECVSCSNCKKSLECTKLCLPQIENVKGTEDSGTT
Test: yeast display SC50

Binder	apparent Kd (screen)
B1	653 pM
B2	1400 pM
B3	1050 pM
B4	718 pM
B5	653 pM
B6	405 pM
B7	2730 pM
B8	12500 pM
B9	653 pM
B10	490 pM
B11	593 pM
B12	539 pM
B13	2250 pM
B14	593 pM
B15	1540 pM
B16	490 pM
B17	956 pM
B18	790 pM
B19	490 pM
B20	539 pM
B21	593 pM
B22	490 pM
B23	1160 pM
B24	446 pM
B25	869 pM
B26	335 pM
B27	16700 pM
B28	490 pM

Binder	apparent Kd (screen)
B29	2730 pM
B30	446 pM
B31	593 pM
B32	7780 pM
B33	718 pM
B34	869 pM
B35	1400 pM
B36	539 pM
B37	718 pM
B38	956 pM
B39	490 pM
B40	446 pM
B41	490 pM
B42	2250 pM
B43	869 pM
B44	653 pM
B45	24400 pM
B46	718 pM
B47	12500 pM
B48	956 pM
B49	1270 pM
B50	539 pM
B51	790 pM
B52	790 pM
B53	1050 pM
B54	653 pM
B55	1860 pM
